Assay results from PMC13185609.

Legend:
[1] = target: Env of the infectious molecular clone 246.F3-NL4.3+BN (HIV-1 (NL4.3) | HIV-1 (subtype AC, 246.F3))
[2] = target: 246.F3 Env N276K (pseudovirus) (HIV-1 (subtype AC, 246.F3))
[3] = target: 246.F3 Env, wild type (pseudovirus 246.F3-SG3 WT) (HIV-1 (subtype AC, 246.F3))
[4] = target: 246.F3 Env N276D (pseudovirus made in Expi293F) (HIV-1 (subtype AC, 246.F3))

Question: With VRC01 (antibody) as the substance, how does the IC50 of neutralisation of the 246.F3-NL4.3+BN virus stock, TZM-bl cells [1] read?
Answer: Its IC50 of neutralisation of the 246.F3-NL4.3+BN virus stock, TZM-bl cells is 0.35 µg/mL.

Question: What about the IC80 of neutralisation of the 246.F3-NL4.3+BN virus stock, TZM-bl cells [1] of the same substance?
Answer: Its IC80 of neutralisation of the 246.F3-NL4.3+BN virus stock, TZM-bl cells is 0.85 µg/mL.

Question: And the IC50 of neutralisation of pseudovirus, TZM-bl cells (highest concentration tested 50 µg/mL) [2]?
Answer: Its IC50 of neutralisation of pseudovirus, TZM-bl cells (highest concentration tested 50 µg/mL) is over 50 µg/mL.

Question: And the IC50 of neutralisation of pseudovirus, TZM-bl cells [3]?
Answer: Its IC50 of neutralisation of pseudovirus, TZM-bl cells is 0.204 µg/mL.

Question: What about the neutralisation of pseudovirus made in Expi293F cells, TZM-bl cells; fold change in sensitivity against wild-type 246.F3 [4] of the same substance?
Answer: The neutralisation of pseudovirus made in Expi293F cells, TZM-bl cells; fold change in sensitivity against wild-type 246.F3 was 5 fold.
